# Columns and labels:
# human CD8 [1] = molecular target: T1, human CD8 (Homo sapiens, UniProt P01732 22-235; A6NJW9 19-210); test: binding to CD8 glycoprotein; method not given
# T1 construct: CD8 as carried by purified human T cells, HPB-ALL leukemia cells, human tissues and CD8+ cells in patients; also called huCD8; CD8 glycoprotein
# human CD8 [2] = molecular target: T1, human CD8; test: cell binding; read as purified human T cells ('respectively' taken to mean the cell types, as in p-1525)
# human CD8 [3] = molecular target: T1, human CD8; test: cell binding; read as HPB-ALL cells ('respectively' taken to mean the cell types, as in p-1525)
# human CD8 [4] = molecular target: T1, human CD8; test: flow cytometry on HPB-ALL cell line carrying CD8
# Experimental: (§1) The binding affinity and specificity of IAB22M2C and Zr-Df-IAB22M2C to human CD8 expressed on cell surfaces were evaluated by flow cytometry for a several cell types, including HPB-ALL leukemia cells (DSMZ, Braunschweig, Germany), purified human T cells, and PC3 prostate cancer cells engineered to express huCD8 (ImaginAb, Inc.).
# human CD8 [5] = molecular target: T1, human CD8; test: flow cytometry on human T cells carrying CD8
# Experimental: as §1
# T1 sequence (P01732 22-235 limits assumed, chain 1 of 2): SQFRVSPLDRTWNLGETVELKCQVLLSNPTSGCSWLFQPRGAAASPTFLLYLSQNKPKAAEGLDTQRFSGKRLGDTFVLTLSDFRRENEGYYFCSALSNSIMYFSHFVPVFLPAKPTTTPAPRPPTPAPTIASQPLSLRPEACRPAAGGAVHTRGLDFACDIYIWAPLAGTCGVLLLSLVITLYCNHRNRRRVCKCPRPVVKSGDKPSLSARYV
# T1 sequence (A6NJW9 19-210 C51R/T71A limits assumed, chain 2 of 2): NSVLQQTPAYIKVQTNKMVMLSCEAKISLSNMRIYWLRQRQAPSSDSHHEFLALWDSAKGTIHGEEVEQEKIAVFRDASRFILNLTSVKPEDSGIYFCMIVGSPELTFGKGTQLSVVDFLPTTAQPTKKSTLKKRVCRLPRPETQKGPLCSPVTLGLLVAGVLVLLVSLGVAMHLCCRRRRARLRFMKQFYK
binder,measurement,setting,value
"89Zr-Df-IAB22M2C (other, deferoxamine (Df) conjugated to lysine residues, radiolabeled with 89Zr, Radiolabeled drug product; Same polypeptide as m1; For patients it is formulated together with cold unconjugated IAB22M2C; also called 89Zr-Df-IAB22M Lot: 42-040A; CD8 PET tracer) DVQITQSPSSLSASVGDRVTITCRTSRSISQYLAWYQQKPGKVPKLLIYSGSTLQSGVPSRFSGSGSGTDFTLTISSLQPEDVATYYCQQHNENPLTFGGGTKVEIKGSTSGGGSGGGSGGGGSSEVQLVESGGGLVQPGGSLRLSCAASGFNIKDTYIHFVRQAPGKGLEWIGRIDPANDNTLYASKFQGKATISADTSKNTAYLQMNSLRAEDTAVYYCGRGYGYYVFDHWGQGTLVTVSSEPKSSDKTHTCPPCPPCGGGSSGGGSGGQPREPQVYTLPPSREEMTKNQVSLTCLVKGFYPSDIAVEWESNGQPENNYKTTPPVLDSDGSFFLYSKLTVDKSRWQQGNVFSCSVMHEALHNHYTQKSLSLSPG",EC50,human CD8 [1],0.4 nM
"Df-IAB22M2C (other, deferoxamine (Df) conjugated to lysine residues; chelator:minibody ratio of approximately 2, Same polypeptide as m1; also called desferrioxamine-conjugated IAB22M2C; Df-IAB22M2C critical intermediate) DVQITQSPSSLSASVGDRVTITCRTSRSISQYLAWYQQKPGKVPKLLIYSGSTLQSGVPSRFSGSGSGTDFTLTISSLQPEDVATYYCQQHNENPLTFGGGTKVEIKGSTSGGGSGGGSGGGGSSEVQLVESGGGLVQPGGSLRLSCAASGFNIKDTYIHFVRQAPGKGLEWIGRIDPANDNTLYASKFQGKATISADTSKNTAYLQMNSLRAEDTAVYYCGRGYGYYVFDHWGQGTLVTVSSEPKSSDKTHTCPPCPPCGGGSSGGGSGGQPREPQVYTLPPSREEMTKNQVSLTCLVKGFYPSDIAVEWESNGQPENNYKTTPPVLDSDGSFFLYSKLTVDKSRWQQGNVFSCSVMHEALHNHYTQKSLSLSPG",EC50,human CD8 [2],0.4 nM
same,EC50,human CD8 [3],0.3 nM
"IAB22M2C (other, also called IAB22M2C Mb; IAB22M2C minibody) DVQITQSPSSLSASVGDRVTITCRTSRSISQYLAWYQQKPGKVPKLLIYSGSTLQSGVPSRFSGSGSGTDFTLTISSLQPEDVATYYCQQHNENPLTFGGGTKVEIKGSTSGGGSGGGSGGGGSSEVQLVESGGGLVQPGGSLRLSCAASGFNIKDTYIHFVRQAPGKGLEWIGRIDPANDNTLYASKFQGKATISADTSKNTAYLQMNSLRAEDTAVYYCGRGYGYYVFDHWGQGTLVTVSSEPKSSDKTHTCPPCPPCGGGSSGGGSGGQPREPQVYTLPPSREEMTKNQVSLTCLVKGFYPSDIAVEWESNGQPENNYKTTPPVLDSDGSFFLYSKLTVDKSRWQQGNVFSCSVMHEALHNHYTQKSLSLSPG",EC50,human CD8 [4],0.3 nM
same,EC50,human CD8 [5],0.4 nM

# Reference: patent publication US20220001043A1 (IMAGINAB, published 2022)
